Test results as given in the supplement of paper PMC10567573.

B1: SLC35F2 (parent)
chain: QYLAERYKVNTPMLQSFINYCLLF

Variants of: B1
Test: protein stability index of a GFP-peptide fusion (GPS, HEK-293T) (PSI 1-6); higher = more stable
Conditions: c terminus: a fixed tail appended
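Note: lentivirally expressed fusions sorted by FACS into six bins by GFP to DsRed ratio, PSI derived from sequencing read proportions per bin multiplied by bin number.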

Variant	protein stability index
QYLAERYKVNTPMLQSFINICLLF [Y20I]	2.62
QYLAERYKVNTPMLQSFINCCLLF [Y20C]	2.64
QYLAERYKVNTPMLQSFINWCLLF [Y20W]	2.03
QYLAERYKVNTPMLQSFINLCLLF [Y20L]	2.94
QYLAERYKVNTPMLQSFINVCLLF [Y20V]	2.78
QYLAERYKVNTPMLQSFINMCLLF [Y20M]	2.09
QYLAERYKVNTPMLQSFINGCLLF [Y20G]	2.35
QYLAERYKVNTPMLQSFINNCLLF [Y20N]	2.41
QYLAERYKVNTPMLQSFINKCLLF [Y20K]	2.5
QYLAERYKVNTPMLQSFINQCLLF [Y20Q]	2.56
QYLAERYKVNTPMLQSFINECLLF [Y20E]	2.09
QYLAERYKVNTPMLQSFINSCLLF [Y20S]	2.3
QYLAERYKVNTPMLQSFINACLLF [Y20A]	3.18
QYLAERYKVNTPMLQSFINTCLLF [Y20T]	2.27
QYLAERYKVNTPMLQSFINPCLLF [Y20P]	2.17
QYLAERYKVNTPMLQSFINHCLLF [Y20H]	2.97
QYLAERYKVNTPMLQSFINFCLLF [Y20F]	3.1
QYLAERYKVNTPMLQSFINDCLLF [Y20D]	1.81
QYLAERYKVNTPMLQSFINRCLLF [Y20R]	2.47
QYLAERYKVNTPMGQSFINYCLLF [L14G]	2.08
QYLAERYKVNTPMKQSFINYCLLF [L14K]	2.38
QYLAERYKVNTPMTQSFINYCLLF [L14T]	2.65
QYLAERYKVNTPMSQSFINYCLLF [L14S]	1.87
QYLAERYKVNTPMQQSFINYCLLF [L14Q]	3.39

Variant	protein stability index
QYLAERYKVNTPMCQSFINYCLLF [L14C]	2.03
QYLAERYKVNTPMWQSFINYCLLF [L14W]	2.4
QYLAERYKVNTPMEQSFINYCLLF [L14E]	2.45
QYLAERYKVNTPMAQSFINYCLLF [L14A]	2.37
QYLAERYKVNTPMFQSFINYCLLF [L14F]	1.69
QYLAERYKVNTPMHQSFINYCLLF [L14H]	2.11
QYLAERYKVNTPMVQSFINYCLLF [L14V]	2.31
QYLAERYKVNTPMPQSFINYCLLF [L14P]	2.12
QYLAERYKVNTPMRQSFINYCLLF [L14R]	2.66
QYLAERYKVNTPMMQSFINYCLLF [L14M]	3.31
QYLAERYKVNTPMNQSFINYCLLF [L14N]	2.12
QYLAERYKVNTPMYQSFINYCLLF [L14Y]	3.03
QYLAERYKVNTPMDQSFINYCLLF [L14D]	2.82
QYLAERYKVNTPMIQSFINYCLLF [L14I]	2.73
QYLAERYKVNTIMLQSFINYCLLF [P12I]	3.44
QYLAERYKVNTCMLQSFINYCLLF [P12C]	3.04
QYLAERYKVNTRMLQSFINYCLLF [P12R]	3.12
QYLAERYKVNTDMLQSFINYCLLF [P12D]	3.1
QYLAERYKVNTFMLQSFINYCLLF [P12F]	3.15
QYLAERYKVNTAMLQSFINYCLLF [P12A]	4.77
QYLAERYKVNTTMLQSFINYCLLF [P12T]	2.54
QYLAERYKVNTKMLQSFINYCLLF [P12K]	1.74
QYLAERYKVNTMMLQSFINYCLLF [P12M]	3.68
QYLAERYKVNTQMLQSFINYCLLF [P12Q]	1.7

Variant	protein stability index
QYLAERYKVNTWMLQSFINYCLLF [P12W]	1.29
QYLAERYKVNTNMLQSFINYCLLF [P12N]	2.72
QYLAERYKVNTSMLQSFINYCLLF [P12S]	2.35
QYLAERYKVNTLMLQSFINYCLLF [P12L]	3.97
QYLAERYKVNTGMLQSFINYCLLF [P12G]	2.73
QYLAERYKVNTYMLQSFINYCLLF [P12Y]	3.33
QYLAERYKVNTEMLQSFINYCLLF [P12E]	2.52
QYLAERYKVNTHMLQSFINYCLLF [P12H]	3.1
QYLAERYKVNTPMLQSDINYCLLF [F17D]	1.82
QYLAERYKVNTPMLQSPINYCLLF [F17P]	1.8
QYLAERYKVNTPMLQSSINYCLLF [F17S]	3.47
QYLAERYKVNTPMLQSYINYCLLF [F17Y]	2.14
QYLAERYKVNTPMLQSWINYCLLF [F17W]	1.6
QYLAERYKVNTPMLQSRINYCLLF [F17R]	3.78
QYLAERYKVNTPMLQSHINYCLLF [F17H]	3.26
QYLAERYKVNTPMLQSTINYCLLF [F17T]	2.45
QYLAERYKVNTPMLQSQINYCLLF [F17Q]	2.34
QYLAERYKVNTPMLQSMINYCLLF [F17M]	3.02
QYLAERYKVNTPMLQSCINYCLLF [F17C]	3.45
QYLAERYKVNTPMLQSVINYCLLF [F17V]	3.29
QYLAERYKVNTPMLQSIINYCLLF [F17I]	3
QYLAERYKVNTPMLQSKINYCLLF [F17K]	2.65
QYLAERYKVNTPMLQSAINYCLLF [F17A]	1.76
QYLAERYKVNTPMLQSNINYCLLF [F17N]	2.12

Variant	protein stability index
QYLAERYKVNTPMLQSEINYCLLF [F17E]	2.3
QYLAERYKVNTPMLQSGINYCLLF [F17G]	2.45
QYLAERYKVNTPMLYSFINYCLLF [Q15Y]	3.21
QYLAERYKVNTPMLDSFINYCLLF [Q15D]	3.24
QYLAERYKVNTPMLVSFINYCLLF [Q15V]	2.86
QYLAERYKVNTPMLHSFINYCLLF [Q15H]	2.23
QYLAERYKVNTPMLISFINYCLLF [Q15I]	1.67
QYLAERYKVNTPMLSSFINYCLLF [Q15S]	3.63
QYLAERYKVNTPMLPSFINYCLLF [Q15P]	3.78
QYLAERYKVNTPMLWSFINYCLLF [Q15W]	2.83
QYLAERYKVNTPMLNSFINYCLLF [Q15N]	2.61
QYLAERYKVNTPMLTSFINYCLLF [Q15T]	3.41
QYLAERYKVNTPMLFSFINYCLLF [Q15F]	3.17
QYLAERYKVNTPMLGSFINYCLLF [Q15G]	3.36
QYLAERYKVNTPMLLSFINYCLLF [Q15L]	3.28
QYLAERYKVNTPMLKSFINYCLLF [Q15K]	1.28
QYLAERYKVNTPMLCSFINYCLLF [Q15C]	2.95
QYLAERYKVNTPMLRSFINYCLLF [Q15R]	2.29
QYLAERYKVNTPMLASFINYCLLF [Q15A]	2.71
QYLAERYKVNTPMLMSFINYCLLF [Q15M]	2.15
QYLAERYKVNTPMLESFINYCLLF [Q15E]	3.23
QYLAERYKVNTPMLQTFINYCLLF [S16T]	1.72
